In patent publication US20150344570A1 (published 2015):

T1: FcγRIIb extracellular domain with C-terminal His tag (human, UniProt P31994 43-217)
T1 construct: extracellular domain; also called 2b; FcgRIIb; not shown: His tag at the C terminus
T1 sequence (looked up): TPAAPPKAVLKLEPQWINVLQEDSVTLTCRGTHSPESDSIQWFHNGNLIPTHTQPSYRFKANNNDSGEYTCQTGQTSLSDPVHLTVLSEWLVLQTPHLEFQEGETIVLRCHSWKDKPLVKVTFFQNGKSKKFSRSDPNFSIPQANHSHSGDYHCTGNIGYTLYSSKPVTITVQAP

B1: GpH7-A5/GpH7-B3 variant G237_02A/GpL16-k0 (antibody, human IgG1, kappa)
heavy 1: not shown
heavy 2: not shown
light: DIVMTQSPLSLPVTPGEPASISCQASESLVHSNRNTYLHWYLQKPGQSPQLLIYKVSNRFSGVPDRFSGSGSGTDFTLKISRVEAEDVGVYYCSQNTHVPPTFGQGTKVEIERTVAAPSVFIFPPSDEQLKSGTASVVCLLNNFYPREAKVQWKVDNALQSGNSQESVTEQDSKDSTYSLSSTLTLSKADYEKHKVYACEVTHQGLSSPVTKSFNRGEC
notes: IgG1, anti-glypican-3; also called He Ab
B2: GpH7-A5/GpH7-B3 variant G236_10E/GpL16-k0 (antibody, human IgG1, kappa)
heavy 1: not shown
heavy 2: not shown
light: B1 light
notes: as for B1
B3: GpH7-A5/GpH7-B3 variant G237_15Y/GpL16-k0 (antibody, human IgG1, kappa)
heavy 1: not shown
heavy 2: not shown
light: B1 light
notes: as for B1
B4: GpH7-A5/GpH7-B3 variant L234_09D/GpL16-k0 (antibody, human IgG1, kappa)
heavy 1: not shown
heavy 2: not shown
light: B1 light
notes: as for B1
B5: GpH7-A5/GpH7-B3 variant L235_15Y/GpL16-k0 (antibody, human IgG1, kappa)
heavy 1: not shown
heavy 2: not shown
light: B1 light
notes: as for B1
B6: GpH7-A5/GpH7-B3 variant G236_18N/GpL16-k0 (antibody, human IgG1, kappa)
heavy 1: not shown
heavy 2: not shown
light: B1 light
notes: as for B1
B7: GpH7-A5/GpH7-B3 variant P238_01G/GpL16-k0 (antibody, human IgG1, kappa)
heavy 1: not shown
heavy 2: not shown
light: B1 light
notes: as for B1
B8: GpH7-A5/GpH7-B3 variant G237_18N/GpL16-k0 (antibody, human IgG1, kappa)
heavy 1: not shown
heavy 2: not shown
light: B1 light
notes: as for B1
B9: GpH7-A5/GpH7-B3 variant G237_04F/GpL16-k0 (antibody, human IgG1, kappa)
heavy 1: not shown
heavy 2: not shown
light: B1 light
notes: as for B1
B10: GpH7-A5/GpH7-B3 variant G237_16H/GpL16-k0 (antibody, human IgG1, kappa)
heavy 1: not shown
heavy 2: not shown
light: B1 light
notes: as for B1
B11: GpH7-A5/GpH7-B3 variant G237_20W/GpL16-k0 (antibody, human IgG1, kappa)
heavy 1: not shown
heavy 2: not shown
light: B1 light
notes: as for B1
B12: GpH7-A5/GpH7-B3 variant L235_16H/GpL16-k0 (antibody, human IgG1, kappa)
heavy 1: not shown
heavy 2: not shown
light: B1 light
notes: as for B1
B13: GpH7-A5/GpH7-B3 variant G236_13S/GpL16-k0 (antibody, human IgG1, kappa)
heavy 1: not shown
heavy 2: not shown
light: B1 light
notes: as for B1
B14: GpH7-A5/GpH7-B3 variant G237_05P/GpL16-k0 (antibody, human IgG1, kappa)
heavy 1: not shown
heavy 2: not shown
light: B1 light
notes: as for B1
B15: GpH7-A5/GpH7-B3 variant L235_04F/GpL16-k0 (antibody, human IgG1, kappa)
heavy 1: not shown
heavy 2: not shown
light: B1 light
notes: as for B1
B16: GpH7-A5/GpH7-B3 variant G237_10E/GpL16-k0 (antibody, human IgG1, kappa)
heavy 1: not shown
heavy 2: not shown
light: B1 light
notes: as for B1
B17: GpH7-A5/GpH7-B3 variant L235_20W/GpL16-k0 (antibody, human IgG1, kappa)
heavy 1: not shown
heavy 2: not shown
light: B1 light
notes: as for B1
B18: GpH7-A5/GpH7-B3 variant G236_11K/GpL16-k0 (antibody, human IgG1, kappa)
heavy 1: not shown
heavy 2: not shown
light: B1 light
notes: as for B1
B19: GpH7-A5/GpH7-B3 variant G237_08L/GpL16-k0 (antibody, human IgG1, kappa)
heavy 1: not shown
heavy 2: not shown
light: B1 light
notes: as for B1

molecular target: T2, FcγRIIIa extracellular domain with C-terminal His tag (human, UniProt P08637 17-208); test: SPR (Biacore), relative to GpH7-A5/GpH7-B3/GpL16-k0 = 100
T2 construct: extracellular domain; also called 3a; FcgRIIIa; not shown: His tag at the C terminus
T2 sequence (P08637 17-208): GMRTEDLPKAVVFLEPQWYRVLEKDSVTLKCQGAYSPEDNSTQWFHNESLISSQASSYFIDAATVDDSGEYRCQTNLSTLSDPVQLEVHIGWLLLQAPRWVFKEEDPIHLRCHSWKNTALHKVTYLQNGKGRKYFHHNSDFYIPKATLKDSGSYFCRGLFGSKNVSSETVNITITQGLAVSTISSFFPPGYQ

He/Con_3a	Binder
48.8 % (control = 100)	B1
70.7 % (control = 100)	B2
22.1 % (control = 100)	B3
117 % (control = 100)	B4
80.6 % (control = 100)	B5
37.8 % (control = 100)	B6
33 % (control = 100)	B7
20.3 % (control = 100)	B8
25.3 % (control = 100)	B9
17.2 % (control = 100)	B10
19.7 % (control = 100)	B11
59.1 % (control = 100)	B12
64.8 % (control = 100)	B13
10.9 % (control = 100)	B14
79.1 % (control = 100)	B15
25.4 % (control = 100)	B16
76.4 % (control = 100)	B17
18.6 % (control = 100)	B18
24.9 % (control = 100)	B19

molecular target: T1, FcγRIIb extracellular domain with …; test: as above

He/Con_2b	Binder
124 % (control = 100)	B1
110 % (control = 100)	B2
152 % (control = 100)	B3
150 % (control = 100)	B4
149 % (control = 100)	B5
96.4 % (control = 100)	B6
56 % (control = 100)	B7
180 % (control = 100)	B8
149 % (control = 100)	B9
55.2 % (control = 100)	B10
193 % (control = 100)	B11
76.9 % (control = 100)	B12
96.7 % (control = 100)	B13
24.6 % (control = 100)	B14
118 % (control = 100)	B15
114 % (control = 100)	B16
147 % (control = 100)	B17
49.8 % (control = 100)	B18
148 % (control = 100)	B19

molecular target: T2, FcγRIIIa extracellular domain with …; test: SPR (Biacore); ratio of He/Con_3a (FcγRIIIa) to He/Con_2b (FcγRIIb)

He_3a/2b (IIIa/IIb)	Binder
0.39	B1
0.64	B2
0.14	B3
0.78	B4
0.54	B5
0.39	B6
0.59	B7
0.11	B8
0.17	B9
0.31	B10
0.1	B11
0.77	B12
0.67	B13
0.44	B14
0.67	B15
0.22	B16
0.52	B17
0.37	B18
0.17	B19
